Measurements: US20260199463A1 (CENTURY THERAPEUTICS, published 2026)

T1: Nectin4-HIS protein (AcroBiosystems #NE4-H52H3) (UniProt Q96NY8 32-349)
T1 construct: Bought protein; also called Nectin4 protein; recombinant Nectin4-HIS protein; not shown: His tag
T1 sequence (looked up): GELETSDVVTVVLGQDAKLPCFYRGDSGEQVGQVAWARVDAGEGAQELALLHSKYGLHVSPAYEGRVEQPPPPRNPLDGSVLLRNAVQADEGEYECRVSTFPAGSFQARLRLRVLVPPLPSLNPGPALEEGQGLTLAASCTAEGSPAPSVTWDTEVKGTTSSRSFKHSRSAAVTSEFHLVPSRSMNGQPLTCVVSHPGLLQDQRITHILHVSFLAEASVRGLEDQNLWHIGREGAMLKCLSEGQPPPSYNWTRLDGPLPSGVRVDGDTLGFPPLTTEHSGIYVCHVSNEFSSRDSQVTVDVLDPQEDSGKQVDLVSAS


The binders below were run against T1, Nectin4-HIS protein (AcroBiosystems …) (assay: flow cytometry, Nectin4-HIS at 2 ug/ml on CAR-transduced Nurkat cells).

| Binder | binding result |
| --- | --- |
| MARS SP_NEC_M_46_P3110_CD8 Hinge_CD28 tm_41BB_CD3Z (other, Chimeric antigen receptor on transduced Nurkat cells or primary T cells) EVQLLESGGGLVQPGGSLRLSCAASGYTFSDYAMGWYRQAPGKERELVSSISGSGGSTRYADSVKGRFTISRDNSKNTLYLQMNSLKPEDTAVYYCAAVIRQPSTGFYEYWGQGTQVTVSSTTTPAPRPPTPAPTIASQPLSLRPEACRPAAGGAVHTRGLDFACDFWVLVVVGGVLACYSLLVTVAFIIFWVKRGRKKLLYIFKQPFMRPVQTTQEEDGCSCRFPEEEEGGCELRVKFSRSADAPAYQQGQNQLYNELNLGRREEYDVLDKRRGRDPEMGGKPRRKNPQEGLYNELQKDKMAEAYSEIGMKGERRRGKGHDGLYQGLSTATKDTYDALHMQALPPR | binds |
| MARS SP_NEC_M_8_P3107_CD8 Hinge_CD28 tm_41BB_CD3Z (other, Chimeric antigen receptor on transduced Nurkat cells or primary T cells) EVQLLESGGGLVQPGGSLRLSCAASGFTFSSYAMGWYRQAPGKEREFVSSISGSGGLTRYADSVKGRFTISRDNSKNTLYLQMNSLKPEDTAVYYCAVTTGYQGGVYDYWGQGTQVTVSSTTTPAPRPPTPAPTIASQPLSLRPEACRPAAGGAVHTRGLDFACDFWVLVVVGGVLACYSLLVTVAFIIFWVKRGRKKLLYIFKQPFMRPVQTTQEEDGCSCRFPEEEEGGCELRVKFSRSADAPAYQQGQNQLYNELNLGRREEYDVLDKRRGRDPEMGGKPRRKNPQEGLYNELQKDKMAEAYSEIGMKGERRRGKGHDGLYQGLSTATKDTYDALHMQALPPR | binds |
| MARS SP_NEC_M_5_P3106_CD8 Hinge_CD28 tm_41BB_CD3Z (other, Chimeric antigen receptor on transduced Nurkat cells or primary T cells) EVQLLESGGGLVQPGGSLRLSCAASGLSFSSYSMGWYRQAPGKEREFVSAISGSSGSTNYADSVKGRFTISRDNSKNTLYLQMNSLKPEDTAVYYCAAEHRVTTSGVFYDYWGQGTQVTVSSTTTPAPRPPTPAPTIASQPLSLRPEACRPAAGGAVHTRGLDFACDFWVLVVVGGVLACYSLLVTVAFIIFWVKRGRKKLLYIFKQPFMRPVQTTQEEDGCSCRFPEEEEGGCELRVKFSRSADAPAYQQGQNQLYNELNLGRREEYDVLDKRRGRDPEMGGKPRRKNPQEGLYNELQKDKMAEAYSEIGMKGERRRGKGHDGLYQGLSTATKDTYDALHMQALPPR | binds |
| MARS SP_NEC_S_31_P3113_CD8 Hinge_CD28 tm_41BB_CD3Z (other, Chimeric antigen receptor on transduced Nurkat cells or primary T cells) EVQLLESGGGLVQPGGSLRLSCAASGFTYSSYAMGWYRQAPGKERELVSSISGSGGSTRYADSVKGRFTISRDNSKNTLYLQMNSLKPEDTAVYYCAVAIGVGDYWGQGTQVTVSSTTTPAPRPPTPAPTIASQPLSLRPEACRPAAGGAVHTRGLDFACDFWVLVVVGGVLACYSLLVTVAFIIFWVKRGRKKLLYIFKQPFMRPVQTTQEEDGCSCRFPEEEEGGCELRVKFSRSADAPAYQQGQNQLYNELNLGRREEYDVLDKRRGRDPEMGGKPRRKNPQEGLYNELQKDKMAEAYSEIGMKGERRRGKGHDGLYQGLSTATKDTYDALHMQALPPR | binds |
| MARS SP_NEC_M_44_P3109_CD8 Hinge_CD28 tm_41BB_CD3Z (other, Chimeric antigen receptor on transduced Nurkat cells or primary T cells) EVQLLESGGGLVQPGGSLRLSCAASGRTLSSYAMGWYRQAPGKERELVSSISGSGGSTRYADSVKGRFTISRDNSKNTLYLQMNSLKPEDTAVYYCAVYILELAPGAEYWGQGTQVTVSSTTTPAPRPPTPAPTIASQPLSLRPEACRPAAGGAVHTRGLDFACDFWVLVVVGGVLACYSLLVTVAFIIFWVKRGRKKLLYIFKQPFMRPVQTTQEEDGCSCRFPEEEEGGCELRVKFSRSADAPAYQQGQNQLYNELNLGRREEYDVLDKRRGRDPEMGGKPRRKNPQEGLYNELQKDKMAEAYSEIGMKGERRRGKGHDGLYQGLSTATKDTYDALHMQALPPR | binds |

The binders below were run against T1, Nectin4-HIS protein (AcroBiosystems …) (assay: ELISA, periplasmic extract on plate-bound Nectin4 (1 ug/mL), anti-Flag:HRP detection).
Experimental: ELISA: 8 Maxisorp plates were coated with 100 uL/well Nectin4 at 1 ug/mL overnight at 4° C. Plates were emptied, and 200 uL/well SuperBlock was added to all plates, and incubated for 1 hour at RT. The plate was washed 1× with TBST on the Aquamax plate washer. 60 μL of anti-Flag:HRP (1:10,000 in PBS-T with 1:10 Superblock) was added per well to a V-bottom plate for each library screening plate. 60 uL/well PPE was added per well to the V-bottom plates and incubated for 1 hour at RT. 50 μL of the PPE/Anti-Flag mix was transferred to each ELISA plate and incubated for 1 hour at RT. The plate was washed 3× with TBST on the Aquamax plate washer. 50 uL/well TMB Ultra solution was added and incubated at RT for 30 minutes, until the wells appeared blue. 50 uL/well stop solution was added and absorbance at 450 nm was read on the Spectramax i3× plate reader. 54 unique clones were identified from the two libraries. A subset of 20 clones was selected from V2S and V2 M for cloning into P201 (SEQ ID Nos. 111-130).

| Binder | binding result |
| --- | --- |
| NEC_M_29 (VHH, Periplasmic extract (PPE) of a panning clone) VHH: EVQLLESGGGLVQPGGSLRLSCAASGFTYTSYVMGWYRQAPGKERELVSAIYGSAGSGYYADSVKGRFTISRDNSKNTLYLQMNSLKPEDTAVYYCARVTTTTHLWSAEYWGQGTQVTVSS | binds |
| NEC_M_21 (VHH, Periplasmic extract (PPE) of a panning clone) VHH: EVQLLESGGGLVQPGGSLRLSCAASGLTFSSNAMGWYRQAPGKERELVSSISGSGGSTNYADSVKGRFTISRDNSKNTLYLQMNSLKPEDTAVYYCAAEIATYYDFADYWGQGTQVTVSS | binds |
| NEC_M_44 (VHH, Periplasmic extract (PPE) of a panning clone) VHH: EVQLLESGGGLVQPGGSLRLSCAASGRTLSSYAMGWYRQAPGKERELVSSISGSGGSTRYADSVKGRFTISRDNSKNTLYLQMNSLKPEDTAVYYCAVYILELAPGAEYWGQGTQVTVSS | binds |
| NEC_M_17 (VHH, Periplasmic extract (PPE) of a panning clone) VHH: EVQLLESGGGLVQPGGSLRLSCAASGFTYSGYAMGWYRQAPGKERELVSSISGSGTLTSYADSVKGRFTISRDNSKNTLYLQMNSLKPEDTAVYYCDVDIPVGDATTVGDYWGQGTQVTVSS | binds |
| NEC_M_84 (VHH, Periplasmic extract (PPE) of a panning clone) VHH: EVQLLESGGGLVQPGGSLRLSCAASGFAFSIDAMGWYRQAPGKEREGVSSISGSGGLTRYADSVKGRFTISRDNSKNTLYLQMNSLKPEDTAVYYCDTAVLTGYSEAFDYWGQGTQVTVSS | binds |
| NEC_M_82 (VHH, Periplasmic extract (PPE) of a panning clone) VHH: EVQLLESGGGLVQPGGSLRLSCAASGFTYSDYAMGWYRQAPGKERELVSAISSYGGVTNYADSVKGRFTISRDNSKNTLYLQMNSLKPEDTAVYYCAAYGALSIRGYDYWGQGTQVTVSS | binds |
| NEC_S_16 (VHH, Periplasmic extract (PPE) of a panning clone) VHH: EVQLLESGGGLVQPGGSLRLSCAASGFTFSDYYMGWYRQAPGKEREFVSAISSTGGSPYYADSVKGRFTISRDNSKNTLYLQMNSLKPEDTAVYYCAVEVPYDYWGQGTQVTVSS | binds |
| NEC_S_64 (VHH, Periplasmic extract (PPE) of a panning clone) VHH: EVQLLESGGGLVQPGGSLRLSCAASGFAYSSYYMGWYRQAPGKEREFVSAISSSGGGTYYADSVKGRFTISRDNSKNTLYLQMNSLKPEDTAVYYCAVELTYNYWGQGTQVTVSS | binds |
| NEC_M_5 (VHH, Periplasmic extract (PPE) of a panning clone) VHH: EVQLLESGGGLVQPGGSLRLSCAASGLSFSSYSMGWYRQAPGKEREFVSAISGSSGSTNYADSVKGRFTISRDNSKNTLYLQMNSLKPEDTAVYYCAAEHRVTTSGVFYDYWGQGTQVTVSS | binds |
| NEC_M_46 (VHH, Periplasmic extract (PPE) of a panning clone) VHH: EVQLLESGGGLVQPGGSLRLSCAASGYTFSDYAMGWYRQAPGKERELVSSISGSGGSTRYADSVKGRFTISRDNSKNTLYLQMNSLKPEDTAVYYCAAVIRQPSTGFYEYWGQGTQVTVSS | binds |
| NEC_S_11 (VHH, Periplasmic extract (PPE) of a panning clone) VHH: EVQLLESGGGLVQPGGSLRLSCAASGLTSSGYAMGWYRQAPGKERELVSSISSSGGLTHYADSVKGRFTISRDNSKNTLYLQMNSLKPEDTAVYYCDADIAYTGADYWGQGTQVTVSS | binds |
| NEC_S_2 (VHH, Periplasmic extract (PPE) of a panning clone) VHH: EVQLLESGGGLVQPGGSLRLSCAASGSTFSSNAMGWYRQAPGKERELVSSISGSGGSTRYADSVKGRFTISRDNSKNTLYLQMNSLKPEDTAVYYCASYVLYLREYWGQGTQVTVSS | binds |
| NEC_M_66 (VHH, Periplasmic extract (PPE) of a panning clone) VHH: EVQLLESGGGLVQPGGSLRLSCAASGFAYSSYSIGWYRQAPGKERELVSAISGSGGSSRYADSVKGRFTISRDNSKNTLYLQMNSLKPEDTAVYYCAAIAYVYTSTARNYWGQGTQVTVSS | binds |
| NEC_S_5 (VHH, Periplasmic extract (PPE) of a panning clone) VHH: EVQLLESGGGLVQPGGSLRLSCAASGLTFRYNAMGWYRQAPGKEREFVSAISGSGGGTYYADSVKGRFTISRDNSKNTLYLQMNSLKPEDTAVYYCAAEGLYDYWGQGTQVTVSS | binds |
| NEC_S_31 (VHH, Periplasmic extract (PPE) of a panning clone) VHH: EVQLLESGGGLVQPGGSLRLSCAASGFTYSSYAMGWYRQAPGKERELVSSISGSGGSTRYADSVKGRFTISRDNSKNTLYLQMNSLKPEDTAVYYCAVAIGVGDYWGQGTQVTVSS | binds |
| NEC_S_56 (VHH, Periplasmic extract (PPE) of a panning clone) VHH: EVQLLESGGGLVQPGGSLRLSCAASGLTLSSYAMGWFRQAPGKERELVSSISGSGGSTRYADSVKGRFTISRDNSKNTLYLQMNSLKPEDTAVYYCAVDIRLTDYWGQGTQVTVSS | binds |
| NEC_M_8 (VHH, Periplasmic extract (PPE) of a panning clone) VHH: EVQLLESGGGLVQPGGSLRLSCAASGFTFSSYAMGWYRQAPGKEREFVSSISGSGGLTRYADSVKGRFTISRDNSKNTLYLQMNSLKPEDTAVYYCAVTTGYQGGVYDYWGQGTQVTVSS | binds |
| NEC_S_55 (VHH, Periplasmic extract (PPE) of a panning clone) VHH: EVQLLESGGGLVQPGGSLRLSCAASGFTLSSYAMGWYRQAPGKERELVSSISGSGGSTRYADSVKGRFTISRDNSKNTLYLQMNSLKPEDTAVYYCAAYIGGDYLGQGTQVTVSS | binds |
